This note sets out measurements from publication PMC7064771, “Repurposed Drugs That Block the Gonococcus-Complement Receptor 3 Interaction Can Prevent and Cure Gonococcal Infection of Primary Human Cervical Epithelial Cells” (mBio, 2020).

What is called Kd is the equilibrium constant for the complex coming apart.

In assay [1] the target is recombinant human CR3 I-domain (I-domain of CD11b) (human). The assay is described as follows: SPR.
Assay [2] concerns the target recombinant human complement receptor 3 (integrin αMβ2) (human) (UniProt P11215). Kind of assay: SPR. For orientation: In SPR one partner is held on a chip, and binding of the other changes the refractive index at the surface.

Sequence of N. gonorrhoeae MS11 wild-type pilin (PilE) modified with the Gal(α1-3)diNAcBac disaccharide (P02974 8-165 limits assumed): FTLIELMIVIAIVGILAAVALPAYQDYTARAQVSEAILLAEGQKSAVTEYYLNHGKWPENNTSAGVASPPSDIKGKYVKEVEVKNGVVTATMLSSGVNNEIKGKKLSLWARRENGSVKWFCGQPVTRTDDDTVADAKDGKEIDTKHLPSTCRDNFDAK

Consider “N. gonorrhoeae MS11 wild-type pilin (PilE) modified with the Gal(α1-3)diNAcBac disaccharide (from UniProt P02974 8-165) (natural protein)”, for which the Kd amounted to 349 nM in assay [1] and 907 nM in assay [2].
